B1: rabbit monoclonal anti-mouse Id1, clone #BCH-1/#37-2 (antibody, V domains shown)
VH: QSVEESGGRLVTPGTPLTLTCKVSGFDINSYAMDWFRQAPGKGLEWIGMMSTRGNTYYTSWAKGRFTISKTSSTTVDLKMTSLTTEDTATYFCARGGLWGPGTLVTVSS
VL: RVLTQTASPVSAAVGGTVTINCQASQSVYNGNRLGWYQLKPGQSPKELIHDASTLASGVPSRFRGSGSGTQFTLTINDVQCDDAATYYCVGSYACSTGDCNVFGGGTEVVVK
notes: Rabbit IgG from hybridoma, Protein G purified; also called m Id1 MoAb 37-2; Rabbit Monoclonal Anti-Mouse Id1 (#37-2)

Tests used:
Mouse Id1: Histidine [1] = biological target: T1, Mouse Id1: Histidine (mouse, UniProt P20067-2 1-148); test: ELISA, coated antigen, Ab 0.005 ug/ml
T1 construct: E. coli fusion protein (vector pGW07); also called m-Id1-His; not shown: His-tag
T1 sequence: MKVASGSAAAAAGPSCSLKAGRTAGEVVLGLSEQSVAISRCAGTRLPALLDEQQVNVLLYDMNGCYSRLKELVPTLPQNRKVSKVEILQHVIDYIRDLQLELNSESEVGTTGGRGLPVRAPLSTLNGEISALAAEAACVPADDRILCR

Mouse Id1: Histidine [2] = biological target: T1, Mouse Id1: Histidine; test: ELISA, coated antigen; reference mouse Id1
[3] = biological target: Human Id1: Histidine (human) (UniProt P41134); test: sandwich ELISA, 5-3-coated wells, human Id1:His 10.0 ng/ml, detected with rabbit polyclonal B-5133-HRP
[4] = biological target: Human Id1: Histidine (human) (UniProt P41134); test: sandwich ELISA, 5-3-coated wells, human Id1:His 0.5 ng/ml, detected with rabbit polyclonal B-5133-HRP
Human Id2: Histidine [5] = biological target: T2, Human Id2: Histidine (human, UniProt Q02363 1-134, limits assumed); test: ELISA, coated antigen, Ab 0.25 ug/ml
T2 construct: E. coli fusion protein (vector pGW07); also called h-Id2: His; not shown: His-tag
T2 sequence (looked up): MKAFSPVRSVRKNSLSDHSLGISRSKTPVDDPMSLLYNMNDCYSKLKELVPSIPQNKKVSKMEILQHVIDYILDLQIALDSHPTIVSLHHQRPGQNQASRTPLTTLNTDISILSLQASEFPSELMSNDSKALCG
Experimental: (§1) Incubate plates at 2-8° C. overnight (16-24 hours). [0145] 11. Shake off the BSA solution. [0146] 12. Dispense 250 μL of 2.5% sucrose solution into each well. [0147] 13. Incubate plates at 2-8° C. for 4 hours. [0148] 14. Shake off sucrose solution. [0149] 15. Dry in vacuum at room temperature overnight. Screening Method [0150] 1. Dispense 100 μL of antibody diluent, diluted rabbit polyclonal anti-Id1 into appropriate wells. […] 2. Incubate at room temperature with mechanical shaking at 750 rpm for 90 minutes. [0152] 3. Remove the incubation mixture by flicking plate content into an appropriate waste container, followed by rinsing the wells 5 times with distilled water. […] 4. Strike the wells sharply onto absorbent paper or paper towels to remove all residual water droplets. [0154] 5. Dispense 100 μL of Goat Anti-Rabbit IgG-HRP Conjugate Reagent into each well. Gently mix for 5 seconds. [0155] 6. Incubate at room temperature with mechanical shaking at 750 rpm for 90 minutes. […] 7. Repeat procedures 3 and 4. [0157] 8. Dispense 100 μL of TMB Reagent into each well. Gently mix for 5 seconds. [0158] 9. Incubate at room temperature with mechanical shaking at 750 rpm for 20 minutes. [0159] 10. Add 100 μL of Stop Solution (1N HCl) into each well. [0160] 11. Gently mix for 10 seconds to ensure a complete mixing. […] 12. Read optical density (absorbance) at 450 nm. Results from this assay were used to select the rabbit sera with the highest antibodies titer that selectively reacts with mouse Id1 or human Id1 or both.
(§2) A comparison was carried out between the reactivity of the rabbit monoclonal anti-mouse Id1, clone #BCH-1/#37-2, of this invention and the mouse monoclonal anti-mouse/human Id1 from BD Pharmingen with the following antigens prepared in Example 5: mouse Id1:His, human Id1:His, human Id2:His, human Id3:His, and GST. These antigens and protein were used to coat the wells.
(§3) Materials and methods were those described in Example 9 except (a) Pharmingen's mouse monoclonal anti-mouse Id1 was used in addition to the rabbit monoclonal anti-mouse Id1 (Example 10), and (b) goat anti-mouse IgG-HRP conjugate was used to process the wells treated with the Pharmingen monoclonal antibody and polyclonal goat anti-rabbit IgG-HRP conjugate was used to process wells treated with rabbit monoclonal anti-mouse Id1.

[6] = biological target: T3, glutathione S-transferase (GST) (UniProt P08515 1-218 = GST); test: ELISA, coated antigen, Ab 0.25 ug/ml
T3 construct: Coated on wells as control for the fusion partner of the immunogen
Experimental: as §1, §2, §3

Mouse Id1: Histidine [7] = biological target: T1, Mouse Id1: Histidine; test: ELISA, coated antigen, Ab 0.25 ug/ml
Experimental: as §1, §2, §3

Human Id3: Histidine [8] = biological target: T4, Human Id3: Histidine (human, UniProt Q02535 1-119, limits assumed); test: ELISA, coated antigen, Ab 0.25 ug/ml
T4 construct: E. coli fusion protein (vector pGW07); also called h-Id3: His; not shown: His-tag
T4 sequence (looked up): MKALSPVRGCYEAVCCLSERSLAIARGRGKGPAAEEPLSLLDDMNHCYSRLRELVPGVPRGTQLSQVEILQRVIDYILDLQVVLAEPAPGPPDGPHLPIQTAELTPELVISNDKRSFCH
Experimental: as §1, §2, §3

[9] = biological target: T3, glutathione S-transferase (GST); test: ELISA, coated antigen, Ab 0 ug/ml (blank)
Experimental: as §1, §2, §3

[10] = biological target: Human Id1: Histidine (human) (UniProt P41134); test: ELISA, coated antigen, Ab 0.10 ug/ml
Human Id2: Histidine [11] = biological target: T2, Human Id2: Histidine; test: ELISA, coated antigen, Ab 0.10 ug/ml
Experimental: as §1, §2, §3

[12] = biological target: T3, glutathione S-transferase (GST); test: ELISA, coated antigen, Ab 0.10 ug/ml
Experimental: as §1, §2, §3

Mouse Id1: Histidine [13] = biological target: T1, Mouse Id1: Histidine; test: ELISA, coated antigen, Ab 0.10 ug/ml
Experimental: as §1, §2, §3

Human Id3: Histidine [14] = biological target: T4, Human Id3: Histidine; test: ELISA, coated antigen, Ab 0.10 ug/ml
Experimental: as §1, §2, §3

Human Id2: Histidine [15] = biological target: T2, Human Id2: Histidine; test: ELISA, coated antigen, Ab 5.00 ug/ml
Experimental: as §1, §2, §3

[16] = biological target: T3, glutathione S-transferase (GST); test: ELISA, coated antigen, Ab 5.00 ug/ml
Experimental: as §1, §2, §3

Mouse Id1: Histidine [17] = biological target: T1, Mouse Id1: Histidine; test: ELISA, coated antigen, Ab 5.00 ug/ml
Experimental: as §1, §2, §3

Human Id3: Histidine [18] = biological target: T4, Human Id3: Histidine; test: ELISA, coated antigen, Ab 5.00 ug/ml
Experimental: as §1, §2, §3

Chain of Human Id1: Histidine (human) (P41134 whole entry): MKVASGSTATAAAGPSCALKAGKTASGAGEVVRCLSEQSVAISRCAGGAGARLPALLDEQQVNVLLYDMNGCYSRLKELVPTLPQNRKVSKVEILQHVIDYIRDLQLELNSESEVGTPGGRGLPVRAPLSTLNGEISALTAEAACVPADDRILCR
T3 sequence (P08515 whole entry, the tested form may be a part): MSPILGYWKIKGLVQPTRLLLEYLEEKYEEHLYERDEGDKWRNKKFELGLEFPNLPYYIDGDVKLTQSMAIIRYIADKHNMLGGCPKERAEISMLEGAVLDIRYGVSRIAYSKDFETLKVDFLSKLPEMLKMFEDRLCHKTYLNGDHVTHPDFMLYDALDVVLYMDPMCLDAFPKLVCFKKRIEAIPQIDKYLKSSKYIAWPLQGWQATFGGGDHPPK

| Molecule | A450 (Mouse Id1: Histidine [1]) [A450] | Cross-reactivity (%) (Mouse Id1: Histidine [2]) | A450 [3] [A450] | A450 [4] [A450] | A450 (Human Id2: Histidine [5]) [A450] | A450 [6] [A450] | A450 (Mouse Id1: Histidine [7]) [A450] | A450 (Human Id3: Histidine [8]) [A450] | A450 [9] [A450] | A450 [10] [A450] | A450 (Human Id2: Histidine [11]) [A450] | A450 [12] [A450] | A450 (Mouse Id1: Histidine [13]) [A450] | A450 (Human Id3: Histidine [14]) [A450] | A450 (Human Id2: Histidine [15]) [A450] | A450 [16] [A450] | A450 (Mouse Id1: Histidine [17]) [A450] | A450 (Human Id3: Histidine [18]) [A450] |
| --- | --- | --- | --- | --- | --- | --- | --- | --- | --- | --- | --- | --- | --- | --- | --- | --- | --- | --- |
| rabbit monoclonal anti-mouse/human Id1, clone #BCH-1/#195-14 (antibody) | 0.249 | 100 |  |  |  |  |  |  |  |  |  |  |  |  |  |  |  |  |
| rabbit monoclonal anti-human Id1, clone #BCH-2/#5-3 (antibody) | 0.063 |  | 0.815 | 0.085 |  |  |  |  |  |  |  |  |  |  |  |  |  |  |
| B1 |  |  |  |  | 0.049 | 0.051 | 2 | 0.047 | 0.047 | 0.061 | 0.049 | 0.047 | 1.29 | 0.048 | 0.083 | 0.086 | 3.26 | 0.091 |
